This note sets out measurements from article PMC6751169.

Test [1] concerns the target MenDRA (MenD-RIAD with one RIAD peptide tag) (E. coli). Put plainly: transmission electron microscopy; TEM of the SEC-purified Assemblies A, B and C; two-dimensional single-particle analysis on Assembly B.
In test [2] the target is MenDRA2 (MenD-RIAD-RIAD with two sequential RIAD peptide tags) (E. coli). Described as above.
The target of test [3] is CrtERD-YFP (geranylgeranyl diphosphate synthase, CrtE-RIDD, fused with yellow fluorescent protein) (UniProt P10644). Put plainly: FRET or BRET; lifetime-based FRET (two-photon FLIM) in living E. coli cells; CFP donor excited at 810 nm, signal collected at 481 nm; strain Car2f against control strain Car1f. For orientation: Bioluminescence resonance energy transfer reports proximity on the nanometre scale.

The target of test [4] is MenDRD (MenD-RIDD with one RIDD peptide tag) (E. coli | not stated). Briefly: SEC; 1.5 mg of enzyme fused with RIAD mixed with two-fold molar excess of enzyme fused with RIDD in Tris buffer pH 7.8, 1 mM EDTA, 0.02% Tween-20, no incubation; Superdex 200 10/300 GL, 0.4 mL/min, Tris pH 7.8, 50 mM NaCl; masses from a calibration curve. In general terms: SEC sorts molecules by how far they enter the pores of the column.

For test [5] the target is unchanged. Put plainly: transmission electron microscopy; TEM of the SEC-purified Assemblies A, B and C; two-dimensional single-particle analysis on Assembly B.

The stoichiometry N is the number of molecules, sites or subunits per partner or assembly. As for “MenDRA (MenD-RIAD with one RIAD peptide tag) (enzyme)”, the stoichiometry N in test [1] is 4.
Substance “MenDRA2 (MenD-RIAD-RIAD with two sequential RIAD peptide tags) (enzyme)” displayed a stoichiometry N in test [2] of 4.
Consider “IdiRA-CFP (isopentenyl diphosphate isomerase, Idi-RIAD, fused with cyan fluorescent protein) (enzyme)”, for which, in test [3], the FRET efficiency E stood at 29%.
For “MenHRA (MenH-RIAD with one RIAD peptide tag) (enzyme)”, the stoichiometry N (MenH per 4 MenD (per particle)) in test [4] is 2.
As for “MenDRD (MenD-RIDD with one RIDD peptide tag) (from UniProt P10644 1-44) (enzyme)”, the stoichiometry N in test [5] worked out at 4.
